# Test results as given in IntAct's records for PubMed 22265413.
# B1: Receptor-interacting serine/threonine-protein kinase 3 (Homo sapiens), Q9Y572 (parent)
# chain: MSCVKLWPSGAPAPLVSIEELENQELVGKGGFGTVFRAQHRKWGYDVAVKIVNSKAISREVKAMASLDNEFVLRLEGVIEKVNWDQDPKPALVTKFMENGSLSGLLQSQCPRPWPLLCRLLKEVVLGMFYLHDQNPVLLHRDLKPSNVLLDPELHVKLADFGLSTFQGGSQSGTGSGEPGGTLGYLAPELFVNVNRKASTASDVYSFGILMWAVLAGREVELPTEPSLVYEAVCNRQNRPSLAELPQAGPETPGLEGLKELMQLCWSSEPKDRPSFQECLPKTDEVFQMVENNMNAAVSTVKDFLSQLRSSNRRFSIPESGQGGTEMDGFRRTIENQHSRNDVMVSEWLNKLNLEEPPSSVPKKCPSLTKRSRAQEEQVPQAWTAGTSSDSMAQPPQTPETSTFRNQMPSPTSTGTPSPGPRGNQGAERQGMNWSCRTPEPNPVTGRPLVNIYNCSGVQVGDNNYLTMQQTTALPTWGLAPSGKGRGLQHPPPVGSQEGPKDPEAWSRPQGWYNHSGK
# partner: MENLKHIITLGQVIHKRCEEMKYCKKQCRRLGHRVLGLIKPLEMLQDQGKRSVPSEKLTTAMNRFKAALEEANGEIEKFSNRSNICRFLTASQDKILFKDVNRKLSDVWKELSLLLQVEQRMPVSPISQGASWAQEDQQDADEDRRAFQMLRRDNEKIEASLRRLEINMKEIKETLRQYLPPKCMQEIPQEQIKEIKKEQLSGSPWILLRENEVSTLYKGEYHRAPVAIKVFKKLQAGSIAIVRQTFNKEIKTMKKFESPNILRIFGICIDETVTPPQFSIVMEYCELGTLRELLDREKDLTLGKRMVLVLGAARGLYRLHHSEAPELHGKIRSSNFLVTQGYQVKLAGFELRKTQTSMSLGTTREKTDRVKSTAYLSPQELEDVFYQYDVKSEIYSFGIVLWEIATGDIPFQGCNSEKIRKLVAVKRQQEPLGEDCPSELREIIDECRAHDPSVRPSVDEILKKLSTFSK
# B2: Mixed lineage kinase domain-like protein (Homo sapiens), Q8NB16 (parent)
# chain: B1 partner
# Variants of: B1
# Conditions: with mlkl_human MLKL
row,Variant,effect of a mutation on the interaction
1,K50A,decreasing interaction

# Variants of: B1
# Conditions: with mlkl_human MLKL
# Remark: another data set of the same source
row,Variant,effect of a mutation on the interaction
1,S227A,disrupting interaction
2,D142N,disrupting interaction

# Variants of: B2
# Conditions: with ripk3_human RIPK3, Q9Y572
row,Variant,effect of a mutation on the interaction
1,MENLKHIITLGQVIHKRCEEMKYCKKQCRRLGHRVLGLIKPLEMLQDQGKRSVPSEKLTTAMNRFKAALEEANGEIEKFSNRSNICRFLTASQDKILFKDVNRKLSDVWKELSLLLQVEQRMPVSPISQGASWAQEDQQDADEDRRAFQMLRRDNEKIEASLRRLEINMKEIKETLRQYLPPKCMQEIPQEQIKEIKKEQLSGSPWILLRENEVSTLYKGEYHRAPVAIKVFKKLQAGSIAIVRQTFNKEIKTMKKFESPNILRIFGICIDETVTPPQFSIVMEYCELGTLRELLDREKDLTLGKRMVLVLGAARGLYRLHHSEAPELHGKIRSSNFLVTQGYQVKLAGFELRKTQEDMSLGTTREKTDRVKSTAYLSPQELEDVFYQYDVKSEIYSFGIVLWEIATGDIPFQGCNSEKIRKLVAVKRQQEPLGEDCPSELREIIDECRAHDPSVRPSVDEILKKLSTFSK [T357E;S358D],decreasing interaction
2,MENLKHIITLGQVIHKRCEEMKYCKKQCRRLGHRVLGLIKPLEMLQDQGKRSVPSEKLTTAMNRFKAALEEANGEIEKFSNRSNICRFLTASQDKILFKDVNRKLSDVWKELSLLLQVEQRMPVSPISQGASWAQEDQQDADEDRRAFQMLRRDNEKIEASLRRLEINMKEIKETLRQYLPPKCMQEIPQEQIKEIKKEQLSGSPWILLRENEVSTLYKGEYHRAPVAIKVFKKLQAGSIAIVRQTFNKEIKTMKKFESPNILRIFGICIDETVTPPQFSIVMEYCELGTLRELLDREKDLTLGKRMVLVLGAARGLYRLHHSEAPELHGKIRSSNFLVTQGYQVKLAGFELRKTQAAMSLGTTREKTDRVKSTAYLSPQELEDVFYQYDVKSEIYSFGIVLWEIATGDIPFQGCNSEKIRKLVAVKRQQEPLGEDCPSELREIIDECRAHDPSVRPSVDEILKKLSTFSK [T357A;S358A],disrupting interaction
